Experimental data reported in article PMC5672800.

How the values were obtained:
[1] = target: mouse melanocortin-3 receptor (mouse) (UniProt P33033)
[2] = target: mouse melanocortin-3 receptor (mouse) (UniProt P33033); experiment: radioligand binding
[3] = target: mouse melanocortin-4 receptor (mouse) (UniProt P56450); experiment: radioligand binding
[4] = target: mouse melanocortin-1 receptor (mouse) (UniProt Q01727)
[5] = target: mouse melanocortin-5 receptor (mouse) (UniProt P41149)
Sequence of mouse melanocortin-5 receptor (mouse) (P41149 whole entry): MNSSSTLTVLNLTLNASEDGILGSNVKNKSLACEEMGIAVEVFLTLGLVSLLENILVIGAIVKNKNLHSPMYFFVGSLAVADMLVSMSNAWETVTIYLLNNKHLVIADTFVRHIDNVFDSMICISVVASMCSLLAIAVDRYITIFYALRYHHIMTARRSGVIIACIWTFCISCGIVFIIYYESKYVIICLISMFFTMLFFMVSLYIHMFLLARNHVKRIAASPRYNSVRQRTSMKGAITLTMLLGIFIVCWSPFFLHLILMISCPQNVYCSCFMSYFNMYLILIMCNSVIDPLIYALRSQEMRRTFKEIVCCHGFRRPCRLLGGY

Sequence of mouse melanocortin-3 receptor (mouse) (P33033 whole entry): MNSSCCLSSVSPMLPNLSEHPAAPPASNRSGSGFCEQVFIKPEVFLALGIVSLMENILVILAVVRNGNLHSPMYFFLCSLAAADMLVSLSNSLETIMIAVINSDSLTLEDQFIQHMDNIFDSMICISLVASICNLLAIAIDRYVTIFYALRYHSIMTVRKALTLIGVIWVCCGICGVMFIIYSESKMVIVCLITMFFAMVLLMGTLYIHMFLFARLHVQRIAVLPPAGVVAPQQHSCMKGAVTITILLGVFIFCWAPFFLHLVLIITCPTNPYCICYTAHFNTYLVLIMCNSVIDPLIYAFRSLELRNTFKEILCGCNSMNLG
Sequence of mouse melanocortin-1 receptor (mouse) (Q01727 whole entry): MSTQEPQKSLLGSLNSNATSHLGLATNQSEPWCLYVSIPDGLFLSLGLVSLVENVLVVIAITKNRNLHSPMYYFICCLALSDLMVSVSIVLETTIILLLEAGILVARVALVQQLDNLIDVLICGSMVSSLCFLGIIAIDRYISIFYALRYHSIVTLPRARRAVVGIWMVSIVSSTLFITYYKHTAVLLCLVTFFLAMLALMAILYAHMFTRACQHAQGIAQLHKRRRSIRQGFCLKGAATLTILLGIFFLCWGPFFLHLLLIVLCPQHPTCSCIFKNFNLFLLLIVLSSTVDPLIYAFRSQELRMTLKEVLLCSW
Sequence of mouse melanocortin-4 receptor (mouse) (P56450 whole entry): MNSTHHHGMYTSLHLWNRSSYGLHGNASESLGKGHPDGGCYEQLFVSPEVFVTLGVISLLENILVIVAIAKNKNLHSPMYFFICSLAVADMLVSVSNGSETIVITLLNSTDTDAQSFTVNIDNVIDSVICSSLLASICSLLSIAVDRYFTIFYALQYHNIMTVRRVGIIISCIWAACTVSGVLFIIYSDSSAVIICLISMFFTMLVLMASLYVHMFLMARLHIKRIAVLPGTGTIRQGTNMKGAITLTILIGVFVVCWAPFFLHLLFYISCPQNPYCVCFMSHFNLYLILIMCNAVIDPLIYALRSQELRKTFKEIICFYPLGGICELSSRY

cAMP AlphaScreen, HEK293 cells stably expressing the receptor: agonist EC50 [1] [nM] | IC50 [2] [nM] | IC50 [3] [nM] | cAMP AlphaScreen, HEK293 cells stably expressing the receptor: agonist EC50 [4] [nM] | cAMP AlphaScreen, HEK293 cells stably expressing the receptor: agonist EC50 [5] [nM] | Binder
540 | 6500 | 455 |  |  | RRFF (HELM PEPTIDE1{[ac].R.R.[O=C([C@@H](Cc1ccc(I)cc1)N[*:1])[*:2]].F.[am]}$$$$V2.0; SMILES CC(=O)N[C@@H](CCCNC(=N)N)C(=O)N[C@@H](CCCNC(=N)N)C(=O)N[C@H](Cc1ccc(I)cc1)C(=O)N[C@@H](Cc1ccccc1)C(N)=O) [compound 25]
1100 |  |  | 92 | 680 | HRFF (HELM PEPTIDE1{[ac].H.R.[O=C([C@@H](Cc1ccc(I)cc1)N[*:1])[*:2]].F.[am]}$$$$V2.0; SMILES CC(=O)N[C@@H](Cc1c[nH]cn1)C(=O)N[C@@H](CCCNC(=N)N)C(=O)N[C@H](Cc1ccc(I)cc1)C(=O)N[C@@H](Cc1ccccc1)C(N)=O) [compound 26]
